This is an account of results in publication PMC6151440.

Assay in all cases: NMR
Holding throughout (conditions): folded, free wild-type ubiquitin

Data set [1] addresses Glu34 (UniProt position 34, KIQDKEGIPPD).
The target of data set [2] is Glu51 (UniProt position 51, AGKQLEDGRTL).
Data set [3] deals with Asp21 (UniProt position 21, EVEPSDTIENV).
The target of data set [4] is Asp32 (UniProt position 32, KAKIQDKEGIP).
The target of data set [5] is Glu16 (UniProt position 16, KTITLEVEPSD).
Data set [6] addresses Glu18 (UniProt position 18, ITLEVEPSDTI).
For data set [7], the target named is Glu64 (UniProt position 64, YNIQKESTLHL).
Data set [8] deals with Asp39 (UniProt position 39, EGIPPDQQRLI).
Data set [9] has as its target Asp58 (UniProt position 58, GRTLSDYNIQK).
Where [10] appears, read: 298 K, not stated (20 mM d-Tris-HCl buffer, no added salt stated), 20 mM d-Tris-HCl, 1-1.5 mM.
The mark [11] stands for this setting: 303 K, 100 mM KCl, cited from earlier work.

The term pKa denotes the negative logarithm of the acid dissociation constant. For “Ubiquitin (wild type) (not stated (Homo sapiens inferred))”, the pKa in [1] (setting [10]) was 4.16 ± 0.03; in data set [1] (setting [11]) it was 4.5; in [2] (setting [10]) it was 3.69 ± 0.02; in data set [2] (setting [11]), 3.8; in data set [3] (setting [10]) it was 2.98 ± 0.03; in data set [3] (setting [11]) it was 3.1. For the same substance, the pKa is reported as 3.68 ± 0.03 in data set [4] (setting [10]); 3.8 in [4] (setting [11]); 4.07 ± 0.02 in data set [5] (setting [10]); 3.9 in data set [5] (setting [11]); 4.26 ± 0.03 in [6] (setting [10]); 4.3 in [6] (setting [11]). Besides, the pKa in [7] (setting [10]) was 4.26 ± 0.02; in [7] (setting [11]), 4.5; in data set [8] (setting [10]), 3.52 ± 0.02; in data set [8] (setting [11]), 3.6; in [9] (setting [10]), 3.47 ± 0.02; in data set [9] (setting [11]), 3.7.
